Publication PMC5376753

B1: recombinant growth and differentiation factor 11 (GDF11) (ligand)
chain: NLGLDCDEHSSESRCCRYPLTVDFEAFGWDWIIAPKRYKANYCSGQCEYMFMQKYPHTHLVQQANPRGSAGPCCTPTKMSPINMLYFNDKQQIIYGKIPGMVVDRCGCS
B2: recombinant activin A (ligand)
chain: GLECDGKVNICCKKQFFVSFKDIGWNDWIIAPSGYHANYCEGECPSHIAGTSGSSLSFHSTVINHYRMRGHSPFANLKSCCVPTKLRPMSMLYYDDGQNIIKKDIQNMIVEECGCS

Each molecule was assayed against activin type II B receptor (ActRIIB) (human (endogenous in HEK293T)) (UniProt Q13705).
Chain of UniProt Q13705 (Q13705 19-512): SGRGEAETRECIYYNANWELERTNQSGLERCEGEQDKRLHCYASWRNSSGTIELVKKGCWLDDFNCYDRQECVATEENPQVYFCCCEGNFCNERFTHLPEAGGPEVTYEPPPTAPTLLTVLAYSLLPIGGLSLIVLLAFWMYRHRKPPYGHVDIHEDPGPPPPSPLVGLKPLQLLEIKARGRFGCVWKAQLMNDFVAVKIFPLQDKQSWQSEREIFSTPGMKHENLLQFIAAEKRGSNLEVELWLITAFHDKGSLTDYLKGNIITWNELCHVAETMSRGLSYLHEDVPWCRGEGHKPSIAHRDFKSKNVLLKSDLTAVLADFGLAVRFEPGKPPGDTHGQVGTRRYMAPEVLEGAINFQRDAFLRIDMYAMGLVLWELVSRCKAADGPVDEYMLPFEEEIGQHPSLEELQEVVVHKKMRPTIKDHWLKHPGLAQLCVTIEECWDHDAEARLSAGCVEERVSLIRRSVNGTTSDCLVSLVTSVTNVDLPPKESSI

Molecule	p-SMAD2/3 AlphaLISA response of HEK293T cells after 1 h of ligand; potency of the ligand with 100 nM anti-ActRIIB (murinized BYM338) applied overnight against 0 nM antibody [fold]
recombinant myostatin (Mstn) (from UniProt O14793 267-375) (ligand)	> 100
B1	100
B2	> 100
